Laboratory results reported in article PMC6179375 (Science Advances, 2018).

Target: T1, Ac-(NPNA)2-NH2 peptide (Plasmodium falciparum (synthetic repeat …))
T1 construct: two NPNA repeats of the central repeat region of P. falciparum circumsporozoite protein (PfCSP); also called (NPNA)2 peptide; source: synthetic peptide, bought: InnoPep Inc. (>98% purity)
T1 chain: Ac-NPNANPNA-NH2
Experiment: ITC; MicroCal Auto-iTC200; peptide 134 uM in the syringe, Fab in the cell (9.2 uM Fab311, 9.6 uM Fab311R); Dulbecco's PBS; 25 °C; triplicate experiments, 16 injections
Conditions: both partners purified

Row | Binder | Kd [nM] | stoichiometry N
1 | Fab311 (Fab of monoclonal antibody mAb311) (Fab, V domains shown, heavy chain of Fab311; cryo-EM models 6MHG and 6MB3 hold the variable domains only; germline IGHV3-33*01; light chain of Fab311; germline IGLV1-40*01; human antibody isolated from an RTS,S/AS01B vaccinee; source: FreeStyle 293-F cells, purified as previously described (15)) VH: QVQLVESGGGVVPPGRSLRLSCATSGFTFSNYGMHWVRQAPGKGLEWVAIIWYDGSRNFYAASVEGRFTISRDNSKNTLYLQMNSLRVEDTAVYYCARAAYYDTSGYGDYWGQGTLVTVSS VL: QSVLTQPPSVSGAPGQTVTISCTGGSSNIGAGYDVHWYQQLPGTAPKLLIYGNINRPSGVPDRFSGSKSGTSASLAITGLQAEDEADYYCQSYDRRLSGSWVFGGGTKLTVL | 160 ± 7 | 1.19 ± 0.04
2 | Fab311R (Fab311 inter-Fab contact residue reverted) (Fab, V domains shown, the PDB entries hold the parent Fab311; also called germline-reverted Fab311; source: FreeStyle 293-F cells) VH: QVQLVESGGGVVPPGRSLRLSCATSGFTFSSYGMHWVRQAPGKGLEWVAIIWYDGSNKFYAASVKGRFTISRDNSKNTLYLQMNSLRVEDTAVYYCARAAYYDTSGYGDYWGQGTLVTVSS VL: QSVLTQPPSVSGAPGQTVTISCTGGSSNIGAGYDVHWYQQLPGTAPKLLIYGNINRPSGVPDRFSGSKSGTSASLAITGLQAEDEADYYCQSYDSSLSGSWVFGGGTKLTVL | 135 ± 56 | 1.21 ± 0.03
